Legend:
K63-linked diubiquitin = K63-linked diubiquitin (UniProt P0CG47); experiment: SEC
[1] = target: diubiquitin G76C linked via K63, conjugated to BODIPY TMR C5-maleimide (UniProt P0CG47); experiment: fluorescence polarisation

stoichiometry N (MyUb per diubiquitin) (K63-linked diubiquitin)	fold reduction in binding affinity compared to the MyUb domain alone [1]	Substance
1		MyUb (G1080-R1131) (from UniProt Q9UM54 1080-1131) (domain or fragment)
	4 fold	myosin VI 1050-1131 (from UniProt Q9UM54 1050-1131) (domain or fragment)

Source: publication PMC4805485
